In the Immune Epitope Database (IEDB):

Target: HLA-A*02:01
Test: IEDB peptide-MHC binding, purified MHC/competitive/radioactivity; ≥ and ≤ were set here for values at or beyond the usual limits of such assays
Conditions: source organism: Human alphaherpesvirus 1

Sequence	IC50
LLFNSLYPA	1.5 nM
LLFVLLVAL	1130 nM
LLGGVMAAV	25 nM
LLGQVQTYV	18 nM
LLIDTGVYA	94 nM
LLLAGTPAV	17 nM
LLLALRHPA	600 nM
LLLAVAVYA	93 nM
LLLHSLTPL	6.9 nM
LLLISMYAL	4.7 nM
LLLMGCDIV	94 nM
LLLNTTLTV	2.9 nM
LLLRQWLHV	207 nM
LLLVRAYWL	63 nM
LLMACAFWC	974 nM
LLMGCDIVL	2.3 nM
LLMNELLRV	8.4 nM
LLMVAVIMAI	9 nM
LLNNYDVLV	10 nM
LLPAVQCAV	63 nM
LLPEIAPNA	30 nM
LLQRANELV	635 nM
LLSALGLSV	8.9 nM
LLSGLPTYA	177 nM
LLSNTLAEL	5.1 nM
LLVEVLREI	1.6 nM

Sequence	IC50
LLYDLSTTA	43 nM
LLYLITNYL	11 nM
LLYNGAYHL	7.6 nM
LMDGHTGMV	184 nM
LMFDPRALA	762 nM
LMHATYFLA	96 nM
LMPSPPMPV	124 nM
LVLNMVYSI	94 nM
LVVTAIVYV	187 nM
LVWYTVFGA	346 nM
MILALTVAI	45 nM
MLCGFSPAL	8.5 nM
MLDTWNEDL	102 nM
MLIDLGLDL	14 nM
MLIKGVDLV	16 nM
MLLAFMTLV	5.7 nM
MLLATREYV	46 nM
MLRDRWSLV	311 nM
MLWTTDKHV	1290 nM
MLYVIFPGT	317 nM
MMLRDRWSL	14 nM
MQFVDRFVV	209 nM
MVIACLLVA	166 nM
NIGAYVVLV	282 nM
NTLMFMVYV	69 nM
QLFEAHPNV	256 nM

Sequence	IC50
QLFPGLAAL	16 nM
QLLADFPEA	133 nM
QLLDPPAAV	186 nM
QLLSAVDYI	127 nM
QLQAAIFHA	697 nM
RIQQYMFFM	81 nM
RLAEAVVSA	75 nM
RLARCLTPA	23 nM
RLASLLTYA	7.9 nM
RLATHLRAV	159 nM
RLCLDVPPV	8.5 nM
RLDAEYWSV	44 nM
RLDALVVAA	44 nM
RLDSLDLTL	101 nM
RLFDFFSRV	0.2 nM
RLIDRMLTA	8.6 nM
RLLEVMDSL	144 nM
RLLGFADTV	27 nM
RLLQSFLKV	82 nM
RLMNDWAEV	24 nM
RLNNRPIAV	20 nM
RLPHICYPV	17 nM
RLPLYEALV	95 nM
RLPPHTQPV	31 nM
RLPRYLACL	76 nM
RLQEALAVV	6.6 nM

Sequence	IC50
RLQFGPPPV	11 nM
RLQHLVAEI	142 nM
RLQTYLTDI	827 nM
RLSPFPALV	60 nM
RLTEDDFGL	77 nM
RLTGVTSLV	13 nM
RLTGYPAGI	1100 nM
RLVDGVGGI	217 nM
RLVVVGWFL	865 nM
RLYRWQPDL	916 nM
RMFGMPTAL	5.5 nM
RMGELTAEI	91 nM
RMLGDVMAV	1.7 nM
RMWAWIHGL	61 nM
RTAWWVWCV	26 nM
RVYNIIQLV	19700 nM
SEEEGNFYV	19200 nM
SLDAKQWSV	7.5 nM
SLFDCIVPV	0.17 nM
SLLALNEAL	54 nM
SLLDSLLVM	76 nM
SLLLVVEGV	8.8 nM
SLLSLEHTL	55 nM
SLLWLGAGV	54 nM
SLMNVDAAV	9.7 nM
SLNARGLLV	145 nM

Sequence	IC50
SLQQELAHM	71 nM
SLRNVLAAV	5.4 nM
SLSTYTVPI	13 nM
SLYDVEFDA	9.7 nM
SMDDDTYVA	546 nM
SMFASCNLL	29 nM
SPGGFVQFV	450 nM
SQLAHLVYV	62 nM
SQTQPPAPV	781 nM
SVYALGFGV	1300 nM
TIHCFFFAV	108 nM
TISKPSEAV	4780 nM
TLIPRLFAL	35 nM
TLLDFAHGL	10 nM
TLLDQNNAL	39 nM
TLLELVVSV	1.8 nM
TLLRLACEV	65 nM
TLRDTIPDC	1390 nM
TLRGLFFSV	94 nM
TLSGMGYYL	148 nM
TMLEDHEFV	118 nM
TMRDDLPLV	61 nM
VIACLLVAV	205 nM
VILPACAFV	6.2 nM
VLAAGVLVV	234 nM
VLAAVLLGA	52 nM

Sequence	IC50
VLADAINGL	86 nM
VLADDVYPL	2.4 nM
VLANFCSAL	14 nM
VLCGIAWYV	7.9 nM
VLDCVVTGA	973 nM
VLDEVMSTL	45 nM
VLFSGPSPL	7.9 nM
VLGAAIWWV	73 nM
VLGAAVYAL	100 nM
VLGCDAALV	521 nM
VLLEKAPPL	24 nM
VLLGAPVVV	14 nM
VLMDGHTGM	136 nM
VLNTLMFMV	14 nM
VLPATFAAV	11 nM
VLTEPLCQV	71 nM
VLVVQPAPV	112 nM
VLWSLLWLG	1.4 nM
VMAARPMVV	266 nM
VMAAVCLQI	15 nM
VTFDTLFMV	8.7 nM
VTTDSVRAL	5350 nM
VVTAIVYVV	265 nM
WLETELVFV	85 nM
WLLQITVLL	130 nM
YFHALVYFV	133 nM

Sequence	IC50
YIFSYDAYT	310 nM
YILNKPVFI	52 nM
YLACELLPA	4.7 nM
YLACLAAVI	61 nM
YLALLEACL	7.5 nM
YLANGGFLI	0.56 nM
YLARAAGLV	210 nM
YLATGALLA	55 nM
YLCDNFCPA	27 nM
YLCPVLVFV	9.5 nM
YLCSLAVVL	17 nM
YLDEAGGHL	23 nM
YLGAFLSVL	16 nM
YLLEQLNNL	5.7 nM
YLLGRPPNA	12 nM
YLLNYAGRI	194 nM
YLREYVTRL	115 nM
YLSEEMMEL	6.3 nM
YLSRTQRLA	110 nM
YMAKLHAYL	11 nM
YTFWRLDLV	30 nM
YVLHFACLV	7.6 nM
YVLNSQIAV	121 nM
YVPPDMRGV	511 nM
